The target of the assay is EWS low-complexity domain (EWS^LCD, EWS 1-264) (human) (UniProt Q01844). The assay can be described thus: co-sedimentation.

Results on one substance are retold here after article doi:10.1101/2022.06.04.494830.

Sequence of EWS low-complexity domain (EWS^LCD, EWS 1-264) (human) (Q01844 1-264, one chain of several): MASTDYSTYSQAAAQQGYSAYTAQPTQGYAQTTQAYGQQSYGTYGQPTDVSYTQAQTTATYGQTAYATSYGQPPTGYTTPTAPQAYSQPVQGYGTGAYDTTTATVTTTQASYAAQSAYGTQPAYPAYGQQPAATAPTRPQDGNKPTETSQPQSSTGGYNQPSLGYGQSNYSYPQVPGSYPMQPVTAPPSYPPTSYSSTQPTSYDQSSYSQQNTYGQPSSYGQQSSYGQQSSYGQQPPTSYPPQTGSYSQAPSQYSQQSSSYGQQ

In turn, “FLI1 DNA-binding domain (FLI1^DBD) (domain or fragment)” gave a percent of total FLI1^DBD in the pellet fraction of 55%.
